{"source": "patent US20240336927", "tested_on": "IgG SLE S6 (anti-BC autoantibody, polyclonal) (human)", "test": "EMSA", "conditions": "reactivity relative to BC200 RNA"}
{"substance": "U4 snRNA", "values": [{"measurement": "binding signal", "result": "< 5", "unit": "%"}]}
